{
  "source": "patent US20230340128A1",
  "about": "(Xencor, published 2023)",
  "binders": {"B1": {"name": "XENP32567 (bispecific antibody)", "chain 1": "QVQLVQSGAEVKKPGASVKVSCKASGYTFTSYWMHWVRQAPGQGLEWMGMIHPNSDNTIYYEKFQGRVTMTVDKSISTAYMELSRLRSDDTAVYYCAIIITPVVPKFDYWGQGTLVTVSSASTKGPSVFPLAPSSKSTSGGTAALGCLVKDYFPEPVTVSWNSGALTSGVHTFPAVLQSSGLYSLSSVVTVPSSSLGTQTYICNVNHKPSDTKVDKKVEPKSCDKTHTCPPCPAPPVAGPSVFLFPPKPKDTLMISRTPEVTCVVVDVKHEDPEVKFNWYVDGVEVHNAKTKPREEEYNSTYRVVSVLTVLHQDWLNGKEYKCKVSNKALPAPIEKTISKAKGQPREPQVYTLPPSREEMTKNQVSLTCDVSGFYPSDIAVEWESDGQPENNYKTTPPVLDSDGSFFLYSKLTVDKSRWEQGDVFSCSVMHEALHNHYTQKSLSLSPGK", "chain 2": "not shown", "chain 3": "DIVMTQSPDSLAVSLGERATINCKASHDVGTSVAWYQQKPGQSPKLLIYWASTRHTGVPDRFTGSGSGTDFTLTISSLQAEDVAVYFCQQYYSYPLTFGAGTKLEIKRTVAAPSVFIFPPSDEQLKSGTASVVCLLNNFYPREAKVQWKVDNALQSGNSQESVTEQDSKDSTYSLSSTLTLSKADYEKHKVYACEVTHQGLSSPVTKSFNRGEC"}, "B2": {"name": "XENP39534 (bispecific antibody)", "heavy 1": "B1 chain 1 with M430L, N436S", "heavy 2": "not shown", "light 1": "B1 chain 3 with Y92S", "light 2": "B1 chain 3 with Y92S", "notes": "also called XENP39534 MSLN (0.3 nM) x CD28 (180 nM) 2+1 mAb-scFv"}, "B3": {"name": "XENP32552 (bispecific antibody)", "chain 1": "B1 chain 1 with M50W", "chain 2": "not shown", "chain 3": "B1 chain 3 with Y92S"}, "B4": {"name": "XENP39534 (bispecific antibody)", "heavy 1": "B1 chain 1 with M430L, N436S", "heavy 2": "not shown", "light 1": "B1 chain 3 with Y92S", "light 2": "B1 chain 3 with Y92S", "notes": "also called H1_L1.71"}, "B5": {"name": "XENP39554 (bispecific antibody)", "heavy": "B1 chain 1 with M430L, N436S", "scFv-Fc": "not shown", "light": "B1 chain 3 with Y92S", "notes": "also called H1_L1.71"}, "B6": {"name": "XENP44469 (bispecific antibody)", "chain 1": "B1 chain 1 with M430L, N436S", "chain 2": "not shown", "chain 3": "B1 chain 3 with Y92S", "notes": "also called 2+1 Fab2-scFv-Fc MSLN x CD28 bsAb"}, "B7": {"name": "XENP44475 (bispecific antibody)", "chain 1": "QVQLVQSGAEVKKPGASVKVSCKASGYTFTSYWMHWVRQAPGQGLEWMGMIHPNSDNTIYYEKFQGRVTMTVDKSISTAYMELSRLRSDDTAVYYCAIIITPVVPKFDYWGQGTLVTVSSASTKGPSVFPLAPSSKSTSGGTAALGCLVKDYFPEPVTVSWNSGALTSGVHTFPAVLQSSGLYSLSSVVTVPSSSLGTQTYICNVNHKPSDTKVDKKVEPKSCGGGGSGGGGSQVQLVQSGAEVKKPGASVKVSCKASGYTFTSYWMHWVRQAPGQGLEWMGMIHPNSDNTIYYEKFQGRVTMTVDKSISTAYMELSRLRSDDTAVYYCAIIITPVVPKFDYWGQGTLVTVSSASTKGPSVFPLAPSSKSTSGGTAALGCLVKDYFPEPVTVSWNSGALTSGVHTFPAVLQSSGLYSLSSVVTVPSSSLGTQTYICNVNHKPSDTKVDKKVEPKSCDKTHTCPPCPAPPVAGPSVFLFPPKPKDTLMISRTPEVTCVVVDVKHEDPEVKFNWYVDGVEVHNAKTKPREEEYNSTYRVVSVLTVLHQDWLNGKEYKCKVSNKALPAPIEKTISKAKGQPREPQVYTLPPSREEMTKNQVSLTCDVSGFYPSDIAVEWESDGQPENNYKTTPPVLDSDGSFFLYSKLTVDKSRWEQGDVFSCSVLHEALHSHYTQKSLSLSPGK", "chain 2": "not shown", "chain 3": "B1 chain 3 with Y92S", "notes": "also called 2+1 Fab2-Fc x scFv-Fc MSLN x CD28 bsAb"}, "B8": {"name": "XENP39533 (bispecific antibody)", "heavy 1": "B1 chain 1 with M430L, N436S", "heavy 2": "not shown", "light 1": "B1 chain 3 with Y92S", "light 2": "B1 chain 3 with Y92S", "notes": "also called H1.14_L1.71"}, "B9": {"name": "XENP39570 (bispecific antibody)", "heavy": "B1 chain 1 with M50W, M430L, N436S", "scFv-Fc": "not shown", "light": "B1 chain 3 with T31Q, Y92S", "notes": "also called XENP39570 MSLN (90 nM) x CD28 (180 nM) 1+1 Fab-scFv-Fc"}, "B10": {"name": "XENP44468 (bispecific antibody)", "chain 1": "B1 chain 1 with M430L, N436S", "chain 2": "not shown", "chain 3": "B1 chain 3 with Y92S", "notes": "as for B6"}, "B11": {"name": "XENP44479 (bispecific antibody)", "heavy": "B7 chain 1 with M50W, M283W", "scFv-Fc": "not shown", "light 1": "B1 chain 3 with T31Q, Y92S", "light 2": "B1 chain 3 with T31Q, Y92S", "notes": "also called XENP44479 MSLN (90 nM) x CD28 (180 nM) 2+1 Fab2-Fc x scFv-Fc"}, "B12": {"name": "XENP44474 (bispecific antibody)", "chain 1": "B7 chain 1", "chain 2": "not shown", "chain 3": "B1 chain 3 with Y92S", "notes": "as for B7"}},
  "key": {"[1]": {"target": "T1, human mesothelin (MSLN) (human, UniProt Q13421 296-580, limits assumed)", "T1 construct": "Antigen of the Octet KD values", "assay": "BLI (Octet), bsAb in 1+1 Fab-scFv-Fc format"}, "[2]": {"target": "T1, human mesothelin (MSLN)", "assay": "BLI (Octet), multiple concentrations, bsAb in 1+1 Fab-scFv-Fc format; lower table, column 'human MSLN (M)'"}, "[3]": {"target": "T2, human CD28 (human, UniProt P10747 19-152, limits assumed)", "T2 construct": "also called Cluster of Differentiation 28; Tp44", "assay": "label in the legend box: nominal affinity of the CD28 binding domain (paragraph 422 calls such label values KD); method not stated on the sheet"}, "[4]": {"target": "T1, human mesothelin (MSLN)", "assay": "label in the legend box: nominal affinity of the MSLN binding domain (paragraph 422 calls such label values KD); method not stated on the sheet"}, "[5]": {"target": "T2, human CD28", "assay": "method not stated; Monovalent CD28 KD, table headed 1A7[CD28] H1_L1.71 (aka 180 nM)"}, "[6]": {"target": "T2, human CD28", "assay": "method not stated; Monovalent CD28 KD, table headed 1A7[CD28] H1.14_L1.71 (aka 37 nM)"}, "[7]": {"target": "T2, human CD28", "assay": "label in the legend box: nominal affinity of the CD28 binding domain (paragraph 422 calls such label values KD); method not stated on the sheet", "remark": "listed apart in the source"}, "[8]": {"target": "T1, human mesothelin (MSLN)", "assay": "label in the legend box: nominal affinity of the MSLN binding domain (paragraph 422 calls such label values KD); method not stated on the sheet", "remark": "listed apart in the source"}},
  "note": "Changes are numbered by the printed parent chain.",
  "data": [
    {"binder": "B1", "values": [
      {"measurement": "Kd", "setting": "[1]", "result": 15.3, "unit": "nM"},
      {"measurement": "Response", "setting": "[1]", "result": 0.953},
      {"measurement": "koff", "setting": "[1]", "result": 0.00887, "unit": "s⁻¹"},
      {"measurement": "kon", "setting": "[1]", "result": 578000, "unit": "M⁻¹ s⁻¹"},
      {"measurement": "Kd", "setting": "[2]", "result": 3.9, "unit": "nM"}
    ]},
    {"binder": "B2", "values": [
      {"measurement": "Kd", "setting": "[3]", "result": 180, "unit": "nM"},
      {"measurement": "Kd", "setting": "[4]", "result": 0.3, "unit": "nM"}
    ]},
    {"binder": "B3", "values": [
      {"measurement": "Kd", "setting": "[1]", "result": 30, "unit": "nM"},
      {"measurement": "Response", "setting": "[1]", "result": 0.915},
      {"measurement": "koff", "setting": "[1]", "result": 0.0147, "unit": "s⁻¹"},
      {"measurement": "kon", "setting": "[1]", "result": 491000, "unit": "M⁻¹ s⁻¹"},
      {"measurement": "Kd", "setting": "[2]", "result": 9.2, "unit": "nM"}
    ]},
    {"binder": "B4", "values": [
      {"measurement": "Kd", "setting": "[5]", "result": 460, "unit": "nM"}
    ]},
    {"binder": "B5", "values": [
      {"measurement": "Kd", "setting": "[5]", "result": 200, "unit": "nM"}
    ]},
    {"binder": "B6", "values": [
      {"measurement": "Kd", "setting": "[6]", "result": 580, "unit": "nM"}
    ]},
    {"binder": "B7", "values": [
      {"measurement": "Kd", "setting": "[6]", "result": 740, "unit": "nM"}
    ]},
    {"binder": "B8", "values": [
      {"measurement": "Kd", "setting": "[6]", "result": 660, "unit": "nM"}
    ]},
    {"binder": "B9", "values": [
      {"measurement": "Kd", "setting": "[3]", "result": 180, "unit": "nM"},
      {"measurement": "Kd", "setting": "[4]", "result": 90, "unit": "nM"}
    ]},
    {"binder": "B10", "values": [
      {"measurement": "Kd", "setting": "[5]", "result": 1200, "unit": "nM"}
    ]},
    {"binder": "B11", "values": [
      {"measurement": "Kd", "setting": "[7]", "result": 180, "unit": "nM"},
      {"measurement": "Kd", "setting": "[8]", "result": 90, "unit": "nM"}
    ]},
    {"binder": "B12", "values": [
      {"measurement": "Kd", "setting": "[5]", "result": 4900, "unit": "nM"}
    ]}
  ]
}
